± gives the uncertainty stated by the source.

B1: Pituitary-specific positive transcription factor 1, residues 130 to 198; numbered along this chain, P28069 (parent)
chain: RELEKFANEFKVRRIKLGYTQTNVGEALAAVHGSEFSQTTICRFENLQLSFKNACKLKAILSKWLEEAE

The variants in this series derive from B1. Kind of series: abundance fitness (aPCA) (normalised: wild type 0, dead -1); higher = more abundant; growth selection in yeast, the domain comes from the species named. The settings on record: Homo sapiens.
Regarding RELEKFANEFKVRRIKNGYTQTNVGEALAAVHGSEFSQTTICRFENLQLSFKNACKLKAILSKWLEEAE [L17N], the abundance fitness is -0.729 ± 0.23.

On to RELEKFANEFKVRRIKRGYTQTNVGEALAAVHGSEFSQTTICRFENLQLSFKNACKLKAILSKWLEEAE [L17R], for which the abundance fitness was -0.803 ± 0.11.

With RELEKFANEFKVRRIKMGYTQTNVGEALAAVHGSEFSQTTICRFENLQLSFKNACKLKAILSKWLEEAE [L17M], the abundance fitness is -0.453 ± 0.096.

As to RELEKFANEFKVRRIKSGYTQTNVGEALAAVHGSEFSQTTICRFENLQLSFKNACKLKAILSKWLEEAE [L17S], the abundance fitness was -0.738 ± 0.091.

As to RELEKFANEFKVRRIKFGYTQTNVGEALAAVHGSEFSQTTICRFENLQLSFKNACKLKAILSKWLEEAE [L17F], the abundance fitness was -0.588 ± 0.094.

Regarding RELEKFANEFKVRRIKVGYTQTNVGEALAAVHGSEFSQTTICRFENLQLSFKNACKLKAILSKWLEEAE [L17V], the abundance fitness is -0.785 ± 0.12.

For RELEKFANEFKVRRIKCGYTQTNVGEALAAVHGSEFSQTTICRFENLQLSFKNACKLKAILSKWLEEAE [L17C], the abundance fitness was -0.613 ± 0.11.

For the variant RELEKFANEFKVRRIKLGFTQTNVGEALAAVHGSEFSQTTICRFENLQLSFKNACKLKAILSKWLEEAE [Y19F], the abundance fitness is -0.501 ± 0.4.

As for RELEKFANEFKVRRIKLGDTQTNVGEALAAVHGSEFSQTTICRFENLQLSFKNACKLKAILSKWLEEAE [Y19D], the abundance fitness is -0.696 ± 0.5.

With RELEKFANEFKVRRIKLGETQTNVGEALAAVHGSEFSQTTICRFENLQLSFKNACKLKAILSKWLEEAE [Y19E], the abundance fitness was -0.934 ± 0.33.

In the case of RELEKFANEFKVRRIKLGCTQTNVGEALAAVHGSEFSQTTICRFENLQLSFKNACKLKAILSKWLEEAE [Y19C], the abundance fitness is -0.562 ± 0.15.

As to RELEKFANEFKVRRIKLGATQTNVGEALAAVHGSEFSQTTICRFENLQLSFKNACKLKAILSKWLEEAE [Y19A], the abundance fitness is -0.421 ± 0.19.

Turning to RELEKFANEFKVRSIKLGYTQTNVGEALAAVHGSEFSQTTICRFENLQLSFKNACKLKAILSKWLEEAE [R14S], the abundance fitness was -0.995 ± 0.2.

On to RELEKFANEFKVRTIKLGYTQTNVGEALAAVHGSEFSQTTICRFENLQLSFKNACKLKAILSKWLEEAE [R14T], for which the abundance fitness is -0.878 ± 0.15.

RELEKFANEFKVRYIKLGYTQTNVGEALAAVHGSEFSQTTICRFENLQLSFKNACKLKAILSKWLEEAE [R14Y]: the abundance fitness was -0.745 ± 0.2.

Take RELEKFANEFKVRQIKLGYTQTNVGEALAAVHGSEFSQTTICRFENLQLSFKNACKLKAILSKWLEEAE [R14Q]: the abundance fitness is -0.74 ± 0.35.

As for RELEKFANEFKVRVIKLGYTQTNVGEALAAVHGSEFSQTTICRFENLQLSFKNACKLKAILSKWLEEAE [R14V], the abundance fitness was -0.712 ± 0.2.

As to RELEKFANEFKVRDIKLGYTQTNVGEALAAVHGSEFSQTTICRFENLQLSFKNACKLKAILSKWLEEAE [R14D], the abundance fitness is -0.725 ± 0.42.

For RELEKFANEFKVRNIKLGYTQTNVGEALAAVHGSEFSQTTICRFENLQLSFKNACKLKAILSKWLEEAE [R14N], the abundance fitness is -0.897 ± 0.35.

Regarding RELEKFANEFKVRPIKLGYTQTNVGEALAAVHGSEFSQTTICRFENLQLSFKNACKLKAILSKWLEEAE [R14P], the abundance fitness is -0.781 ± 0.27.

Regarding RELEKFANEFKVRHIKLGYTQTNVGEALAAVHGSEFSQTTICRFENLQLSFKNACKLKAILSKWLEEAE [R14H], the abundance fitness was -0.253 ± 0.22.

Turning to RELEKFANEFKVRLIKLGYTQTNVGEALAAVHGSEFSQTTICRFENLQLSFKNACKLKAILSKWLEEAE [R14L], the abundance fitness is -0.72 ± 0.18.

As for RELEKFANEFKVRMIKLGYTQTNVGEALAAVHGSEFSQTTICRFENLQLSFKNACKLKAILSKWLEEAE [R14M], the abundance fitness is -0.645 ± 0.19.

Turning to RELEKFANEFKVREIKLGYTQTNVGEALAAVHGSEFSQTTICRFENLQLSFKNACKLKAILSKWLEEAE [R14E], the abundance fitness is -0.952 ± 0.37.

As for RELEKFANEFKVRGIKLGYTQTNVGEALAAVHGSEFSQTTICRFENLQLSFKNACKLKAILSKWLEEAE [R14G], the abundance fitness was -0.8 ± 0.17.

For the variant RELEKFANEFKVRRILLGYTQTNVGEALAAVHGSEFSQTTICRFENLQLSFKNACKLKAILSKWLEEAE [K16L], the abundance fitness is -0.468 ± 0.097.

For RELEKFANEFKVRRIYLGYTQTNVGEALAAVHGSEFSQTTICRFENLQLSFKNACKLKAILSKWLEEAE [K16Y], the abundance fitness was -0.64 ± 0.12.

With RELEKFANEFKVRRIFLGYTQTNVGEALAAVHGSEFSQTTICRFENLQLSFKNACKLKAILSKWLEEAE [K16F], the abundance fitness was -0.909 ± 0.21.

With RELEKFANEFKVRRITLGYTQTNVGEALAAVHGSEFSQTTICRFENLQLSFKNACKLKAILSKWLEEAE [K16T], the abundance fitness was -0.809 ± 0.15.

Regarding RELEKFANEFKVRRIRLGYTQTNVGEALAAVHGSEFSQTTICRFENLQLSFKNACKLKAILSKWLEEAE [K16R], the abundance fitness is -0.027 ± 0.044.

As for RELEKFANEFKVRRIGLGYTQTNVGEALAAVHGSEFSQTTICRFENLQLSFKNACKLKAILSKWLEEAE [K16G], the abundance fitness is -0.559 ± 0.088.

As for RELEKFANEFKVRRIDLGYTQTNVGEALAAVHGSEFSQTTICRFENLQLSFKNACKLKAILSKWLEEAE [K16D], the abundance fitness is -0.665 ± 0.21.

Turning to RELEKFANEFKVRRIVLGYTQTNVGEALAAVHGSEFSQTTICRFENLQLSFKNACKLKAILSKWLEEAE [K16V], the abundance fitness is -0.812 ± 0.18.

RELEKFANEFKVRRICLGYTQTNVGEALAAVHGSEFSQTTICRFENLQLSFKNACKLKAILSKWLEEAE [K16C]: the abundance fitness was -0.121 ± 0.17.

For RELEKFANEFKVRRISLGYTQTNVGEALAAVHGSEFSQTTICRFENLQLSFKNACKLKAILSKWLEEAE [K16S], the abundance fitness is -0.365 ± 0.078.

Consider RELEKFANEFKVRRIMLGYTQTNVGEALAAVHGSEFSQTTICRFENLQLSFKNACKLKAILSKWLEEAE [K16M], for which the abundance fitness was -0.365 ± 0.13.

With RELEKFANEFKVRRINLGYTQTNVGEALAAVHGSEFSQTTICRFENLQLSFKNACKLKAILSKWLEEAE [K16N], the abundance fitness is -0.122 ± 0.076.

RELEKFANEFKVRRIALGYTQTNVGEALAAVHGSEFSQTTICRFENLQLSFKNACKLKAILSKWLEEAE [K16A]: the abundance fitness was -0.08 ± 0.092.

For the variant RELEKFANEFKVRRIHLGYTQTNVGEALAAVHGSEFSQTTICRFENLQLSFKNACKLKAILSKWLEEAE [K16H], the abundance fitness was -0.786 ± 0.37.

Values taken from the Human Domainome abundance scans (Beltran et al. 2025).
